The values below come from US6680424 (UNIVERSITY OF LEEDS, dated 2004).

In experiment [1] the target is corresponding proteinases (proteinase of the comparative inhibition assay, not named). Briefly: cell-based or functional assay.
For experiment [2] the target is unchanged. Briefly: cell-based or functional assay. The source holds these as a separate data set.
Experiment [3] deals with T1, papain (UniProt P00784 134-345).
T1 sequence (looked up): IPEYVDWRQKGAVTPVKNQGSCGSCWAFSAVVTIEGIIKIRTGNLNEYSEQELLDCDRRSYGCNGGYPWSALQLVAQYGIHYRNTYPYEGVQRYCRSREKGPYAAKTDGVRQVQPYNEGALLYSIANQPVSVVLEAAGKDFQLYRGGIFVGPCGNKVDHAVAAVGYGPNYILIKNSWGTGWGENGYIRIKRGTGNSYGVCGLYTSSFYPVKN
The experiment can be described thus: proteinase inhibition assay (Barrett), Ki calculated as by Abe et al. On the procedure: (§1) To determine the Ki of cystatins biochemical assays were performed according to the procedure of Barrett (7) and Ki values were calculated as described by Abe et al. (3)

Experiment [4] concerns the target T2, C. elegans cysteine proteinase gcp-1, expressed and purified from E. coli (Caenorhabditis elegans, UniProt P25807 85-329, limits assumed).
T2 construct: also called gcp-I; glp-1
T2 sequence (looked up): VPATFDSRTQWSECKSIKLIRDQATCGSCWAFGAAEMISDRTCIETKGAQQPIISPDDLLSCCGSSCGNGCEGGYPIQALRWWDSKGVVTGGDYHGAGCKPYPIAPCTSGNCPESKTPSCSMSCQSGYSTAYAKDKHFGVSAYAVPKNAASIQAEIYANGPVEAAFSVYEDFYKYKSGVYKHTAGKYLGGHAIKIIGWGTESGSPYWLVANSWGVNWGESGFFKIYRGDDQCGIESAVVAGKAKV
The description is as above. The protocol:
as §1

The target of experiment [5] is T1, papain. The experiment can be described thus: proteinase inhibition assay, Ki.
Experiment [6] deals with T2, C. elegans cysteine proteinase gcp-1, …. Briefly: proteinase inhibition assay, Ki.

Substitutions are numbered along the chain they refer to. Where two headings read alike, the source gives them in different places.

As for “Chicken egg white cystatin (CEWC) (from UniProt P01038 24-139)”, in experiment [1], the relative percentage inhibition is 100%.
The same measure, in the same setting: as for “OC-NTERM1-15QVLSG40-63CTERM97-116 (hybrid of Oc-I with three CEWC regions) (from UniProt P09229 56-77; P09229 102-123)”, the figure is 90%.

B1: Oryzacystatin I (Oc-I), wild type, expressed from pQE30 in E. coli (other, Oryza sativa L. japonica)
chain: HHHHHHMSSDGGPVLGGVEPVGNENDLHLVDLARFAVTEHNKKANSLLEFEKLVSVKQQVVAGTLYYFTIEVKEGDAKKLYEAKVWEKPWMDFKELQEFKPVDASANA
notes: the present UniProt entry may carry a longer N-terminus, so the numbering must be checked; also called Oryzacystatin Oc-I; native Oc-I
Consider B1, for which the relative percentage inhibition in experiment [2] is 60%. Moreover, the Ki is 7 nM in the experiment with papain [3] and 8 nM in experiment [4].

B2: Oc-IdeltaD86 (Oryzacystatin I with aspartic acid 86 deleted) (other)
chain: HHHHHHMSSDGGPVLGGVEPVGNENDLHLVDLARFAVTEHNKKANSLLEFEKLVSVKQQVVAGTLYYFTIEVKEGDAKKLYEAKVWEKPWMFKELQEFKPVDASANA
For B2, the relative percentage inhibition in experiment [1] is 88%. Besides, the “fold lowering of Ki against wild type Oc-I” value (with papain [5]; in experiment [6]) was roughly 13 fold each time. Besides, the Ki with papain [3] was 0.5 nM; in experiment [4], 0.6 nM.

B3: Oc-I with deletion of residue M85 (other)
chain: B2 chain with M91D
On to B3, for which, in experiment [4], the Ki was 7.1 nM.
